This experiment addresses T1, BSA (UniProt P02769 25-607).
T1 construct: also called 음성 대조군; 대조군
The experiment can be described thus: ELISA of clone supernatant on coated antigen.

The values that follow come from patent KR20170108690A (dated 2017).

T1 sequence (P02769 25-607 limits assumed): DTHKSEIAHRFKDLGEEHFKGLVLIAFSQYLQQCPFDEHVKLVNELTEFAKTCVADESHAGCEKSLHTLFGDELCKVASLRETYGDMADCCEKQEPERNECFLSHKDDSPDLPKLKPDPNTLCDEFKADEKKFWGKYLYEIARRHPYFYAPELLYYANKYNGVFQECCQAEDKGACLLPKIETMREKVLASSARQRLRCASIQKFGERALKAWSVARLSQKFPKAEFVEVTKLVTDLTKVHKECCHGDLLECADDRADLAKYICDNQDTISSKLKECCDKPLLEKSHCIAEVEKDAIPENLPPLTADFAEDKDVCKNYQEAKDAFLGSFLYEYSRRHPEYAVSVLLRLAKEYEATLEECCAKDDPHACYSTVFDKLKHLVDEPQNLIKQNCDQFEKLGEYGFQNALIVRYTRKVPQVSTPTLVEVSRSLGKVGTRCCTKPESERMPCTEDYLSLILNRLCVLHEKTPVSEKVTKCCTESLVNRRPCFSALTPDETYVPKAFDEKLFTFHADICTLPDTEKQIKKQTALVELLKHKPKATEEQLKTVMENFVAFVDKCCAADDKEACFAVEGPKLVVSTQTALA

B1: NA-A4 항체 클론 (Fab 형태, 파지 디스플레이 클론의 IPTG 유도 상층액) (Fab, V domains shown)
VH: EVQLVESGGGLVQPGGSLRLSCAASGFTFNSYWMSWVRQAPGKGLEWVSWITPTSGTTYYADSVKGRFTISRDNSKNTLYLQMNSLRAEDTAVYYCARVEDWDIGYYGMDYWGQGTLVTVSS
VL: DIQMTQSPSSLSASVGDRVTITCRASQSVSNWLAWYQQKPGKAPKLLIYWASSLESGVPSRFSGSGSGTDFTLTISSLQPEDFATYYCQQYYNHPYTFGQGTKVEIK
notes: also called Influenza NA-A4 antibody; 인플루엔자 NA-A4 항체
With B1, the binding result is “no binding”.
